Assay results: patent US20130011427A1 (priority 2009, published 2013)

What was measured:
[1] = test system: HLA-A24/huCD8α (HLA-A*2402) Tg mice, CD4-depleted splenocytes; assay type: cell-based, mouse
[2] = biological target: HLA-DR4 (HLA-DRA*0101 / HLA-DRB1*0401) (human); assay: cell-based or functional assay
[3] = biological target: HLA-A2.1 (HHD monochain) (human; murine); assay: cell-based or functional assay
[4] = biological target: HLA-DR3 (HLA-DRA*0101 / HLA-DRB1*0301) (human); assay: cell-based or functional assay
[5] = biological target: HLA-DR2 (chimeric HLA-DRA1*0101/DRB1*1501 with I-E domains) (human; murine) (UniProt Q8BHN5); assay: cell-based or functional assay
Sequence of UniProt Q8BHN5 (Q8BHN5 whole entry, stated change not applied): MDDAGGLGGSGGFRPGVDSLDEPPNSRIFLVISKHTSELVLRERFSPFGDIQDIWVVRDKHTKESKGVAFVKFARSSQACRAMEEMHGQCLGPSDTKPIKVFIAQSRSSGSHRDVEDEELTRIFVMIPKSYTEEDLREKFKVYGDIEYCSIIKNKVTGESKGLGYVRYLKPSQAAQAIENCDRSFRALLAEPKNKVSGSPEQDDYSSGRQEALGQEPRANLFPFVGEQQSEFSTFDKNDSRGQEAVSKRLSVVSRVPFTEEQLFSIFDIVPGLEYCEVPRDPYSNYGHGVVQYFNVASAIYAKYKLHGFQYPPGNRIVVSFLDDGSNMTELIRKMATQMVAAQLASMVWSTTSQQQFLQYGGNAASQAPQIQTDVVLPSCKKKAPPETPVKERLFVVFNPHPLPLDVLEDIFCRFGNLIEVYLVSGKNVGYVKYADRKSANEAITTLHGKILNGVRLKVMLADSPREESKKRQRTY

Substance | IFN-γ ELISpot (SFC/10^6) [4] | IFN-γ ELISpot (SFC/10^6) [5] | other results
DTACLAKSYAQMWLLLYF [NS5 755-772] | – | – | T cell activation of HLA transgenic mice (SFC/10^6) IFN-γ ELISpot, A24 [1]: 132 ± 62 SFC/10^6
FACSTKAIGRTILKENIK [E 119-136] | – | – | T cell activation of HLA transgenic mice (SFC/10^6) IFN-γ ELISpot, A24 [1]: 179 ± 136 SFC/10^6
IALIALLSVMTMGVFFLL [NS4a 54-71] | – | – | T cell activation of HLA transgenic mice (SFC/10^6) IFN-γ ELISpot, A24 [1]: 70 ± 16 SFC/10^6
NFQLMNDPGAPWKIWMLR [NS2b 84-101] | – | – | T cell activation of HLA transgenic mice (SFC/10^6) IFN-γ ELISpot, A24 [1]: 35 ± 1 SFC/10^6
PTIDVKMMNMEAANLAEV [E 39-56] | – | – | T cell activation of HLA transgenic mice (SFC/10^6) IFN-γ ELISpot, A24 [1]: 137 ± 124 SFC/10^6
PYSGKREDIWCGSLIGTR [NS5 842-859] | – | – | T cell activation of HLA transgenic mice (SFC/10^6) IFN-γ ELISpot, A24 [1]: 180 ± 66 SFC/10^6
TLMEFEEPHATKQSVIAL [E 238-255] | – | – | T cell activation of HLA transgenic mice (SFC/10^6) IFN-γ ELISpot, A24 [1]: 122 ± 108 SFC/10^6
TWTLIKNMEKPGLKR [NS4b 241-255] | – | – | T cell activation of HLA transgenic mice (SFC/10^6) IFN-γ ELISpot, A24 [1]: 53 ± 32 SFC/10^6
VMTMGVFFLLMQRKGIGK [NS4a 62-79] | – | – | T cell activation of HLA transgenic mice (SFC/10^6) IFN-γ ELISpot, A24 [1]: 117 ± 39 SFC/10^6
WNV E 62-77 peptide | – | – | IFN-γ ELISpot (SFC/10^6) [2]: 47 SFC/10^6; IFN-γ ELISpot (SFC/10^6) [3]: 465 SFC/10^6
WNV E 99-113 peptide | 79 SFC/10^6 | – | –
WNV E 127-144 peptide | 198 SFC/10^6 | 120 SFC/10^6 | –
WNV E 135-152 peptide | 86 SFC/10^6 | – | –
WNV E 398-415 peptide | 88 SFC/10^6 | 168 SFC/10^6 | –
WNV E 426-443 peptide | 83 SFC/10^6 | – | –
WNV E 434-451 peptide | 79 SFC/10^6 | 116 SFC/10^6 | –
WNV E 442-459 peptide | 101 SFC/10^6 | 117 SFC/10^6 | IFN-γ ELISpot (SFC/10^6) [3]: 442 SFC/10^6
WNV E 465-482 peptide | 330 SFC/10^6 | 490 SFC/10^6 | IFN-γ ELISpot (SFC/10^6) [3]: 310 SFC/10^6
WNV E 486-501 peptide | 244 SFC/10^6 | 214 SFC/10^6 | IFN-γ ELISpot (SFC/10^6) [3]: 323 SFC/10^6
WNV NS3 474-489 peptide | 83 SFC/10^6 | – | IFN-γ ELISpot (SFC/10^6) [3]: 92 SFC/10^6
WNV NS3 487-501 peptide | 431 SFC/10^6 | – | IFN-γ ELISpot (SFC/10^6) [3]: 308 SFC/10^6
WNV NS3 500-517 peptide | 145 SFC/10^6 | 51 SFC/10^6 | –
WNV NS3 560-574 peptide | 225 SFC/10^6 | – | –
WNV NS4b 38-55 peptide | 67 SFC/10^6 | 57 SFC/10^6 | –
WNV NS5 115-132 peptide | 79 SFC/10^6 | – | –
WNV NS5 605-622 peptide | – | 556 SFC/10^6 | IFN-γ ELISpot (SFC/10^6) [2]: 240 SFC/10^6
WNV prM 121-138 peptide | – | 130 SFC/10^6 | IFN-γ ELISpot (SFC/10^6) [2]: 56 SFC/10^6
WNV prM 136-153 peptide | 78 SFC/10^6 | 235 SFC/10^6 | IFN-γ ELISpot (SFC/10^6) [2]: 327 SFC/10^6
WNV prM 152-167 peptide | 90 SFC/10^6 | 269 SFC/10^6 | IFN-γ ELISpot (SFC/10^6) [2]: 117 SFC/10^6; IFN-γ ELISpot (SFC/10^6) [3]: 318 SFC/10^6

Continued, in another order:

IFN-γ ELISpot (SFC/10^6) [4] | IFN-γ ELISpot (SFC/10^6) [5] | Substance | other results
87 SFC/10^6 | – | WNV E 384-399 peptide | –
572 SFC/10^6 | – | WNV NS1 1-19 peptide | –
52 SFC/10^6 | – | WNV NS1 18-35 peptide | –
557 SFC/10^6 | – | WNV NS1 305-322 peptide | IFN-γ ELISpot (SFC/10^6) [2]: 109 SFC/10^6
231 SFC/10^6 | 556 SFC/10^6 | WNV NS2a 168-183 peptide | –
368 SFC/10^6 | 149 SFC/10^6 | WNV NS3 37-54 peptide | –
63 SFC/10^6 | – | WNV NS3 45-59 peptide | –
121 SFC/10^6 | – | WNV NS3 480-496 peptide | –
216 SFC/10^6 | – | WNV NS3 492-509 peptide | –
132 SFC/10^6 | – | WNV NS4a 1-17 peptide | –
– | 278 SFC/10^6 | WNV NS4a 15-31 peptide | IFN-γ ELISpot (SFC/10^6) [2]: 187 SFC/10^6
386 SFC/10^6 | – | WNV NS4b 63-80 peptide | IFN-γ ELISpot (SFC/10^6) [2]: 92 SFC/10^6
99 SFC/10^6 | – | WNV NS4b 201-218 peptide | IFN-γ ELISpot (SFC/10^6) [2]: 73 SFC/10^6
